The results in this text go back to publication PMC8809517, “Cofactor-independent RNA editing by a synthetic S-type PPR protein”.

Assay in all cases: high-throughput RNA pulldown from lysate on Ni-NTA beads; HRP: 50 mM Tris pH 8, 150 mM NaCl, 1 mM beta-mercaptoethanol, 50 ug/ml BSA, 3 ug/ml yeast RNA, 0.5% heparin; ITC and FP: Tris pH 8, 200 mM KCl, 5% glycerol; MST: 50 mM Tris pH 8, 200 mM NaCl, 1 mM DTT, BSA, heparin, 0.05% Tween 20
Holding throughout (conditions): tags: N-terminal His-eGFP

Data set [1] concerns the target T1, GFP-9S library array, motif 4 ND N98T;D124Y (synthetic construct, N98T;D124Y).
T1 chain: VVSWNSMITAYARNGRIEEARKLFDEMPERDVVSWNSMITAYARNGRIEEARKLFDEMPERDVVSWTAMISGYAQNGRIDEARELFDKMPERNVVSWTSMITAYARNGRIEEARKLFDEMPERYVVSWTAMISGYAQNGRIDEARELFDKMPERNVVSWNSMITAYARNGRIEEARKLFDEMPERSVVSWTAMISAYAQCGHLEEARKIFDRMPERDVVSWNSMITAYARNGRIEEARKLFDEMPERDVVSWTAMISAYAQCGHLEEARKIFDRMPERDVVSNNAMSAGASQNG

In data set [2] the target is T2, GFP-9S library array, motif 4 ND N98G;D124F (synthetic construct, N98G;D124F).
T2 chain: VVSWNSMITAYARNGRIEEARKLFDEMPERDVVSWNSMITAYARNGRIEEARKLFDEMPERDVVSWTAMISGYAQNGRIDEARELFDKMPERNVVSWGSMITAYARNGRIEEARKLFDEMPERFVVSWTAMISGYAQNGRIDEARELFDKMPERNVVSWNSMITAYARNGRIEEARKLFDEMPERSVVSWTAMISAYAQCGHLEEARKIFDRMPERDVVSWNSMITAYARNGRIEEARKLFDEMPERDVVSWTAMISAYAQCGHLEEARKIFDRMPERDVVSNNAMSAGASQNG

Data set [3] has as its target T3, GFP-9S library array, motif 4 ND N98G;D124V (synthetic construct, N98G;D124V).
T3 chain: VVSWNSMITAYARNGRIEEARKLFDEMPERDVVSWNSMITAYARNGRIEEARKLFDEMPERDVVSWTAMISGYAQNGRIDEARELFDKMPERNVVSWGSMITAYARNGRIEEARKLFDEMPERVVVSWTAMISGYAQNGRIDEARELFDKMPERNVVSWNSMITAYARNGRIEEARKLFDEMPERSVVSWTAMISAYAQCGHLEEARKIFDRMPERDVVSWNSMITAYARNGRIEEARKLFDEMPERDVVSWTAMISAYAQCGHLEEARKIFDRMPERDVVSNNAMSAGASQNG

Data set [4] addresses T4, GFP-9S library array, motif 4 ND N98A;D124R (synthetic construct, N98A;D124R).
T4 chain: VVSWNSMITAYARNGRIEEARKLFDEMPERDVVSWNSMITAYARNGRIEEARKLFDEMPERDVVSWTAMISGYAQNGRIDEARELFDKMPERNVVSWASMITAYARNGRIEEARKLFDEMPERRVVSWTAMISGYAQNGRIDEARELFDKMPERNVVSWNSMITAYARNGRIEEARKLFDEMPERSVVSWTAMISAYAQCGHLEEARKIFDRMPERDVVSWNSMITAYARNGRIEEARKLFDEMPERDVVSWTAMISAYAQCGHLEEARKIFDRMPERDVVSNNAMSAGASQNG

In data set [5] the target is T5, GFP-9S library array, motif 4 ND N98Q;D124N (synthetic construct, N98Q;D124N).
T5 chain: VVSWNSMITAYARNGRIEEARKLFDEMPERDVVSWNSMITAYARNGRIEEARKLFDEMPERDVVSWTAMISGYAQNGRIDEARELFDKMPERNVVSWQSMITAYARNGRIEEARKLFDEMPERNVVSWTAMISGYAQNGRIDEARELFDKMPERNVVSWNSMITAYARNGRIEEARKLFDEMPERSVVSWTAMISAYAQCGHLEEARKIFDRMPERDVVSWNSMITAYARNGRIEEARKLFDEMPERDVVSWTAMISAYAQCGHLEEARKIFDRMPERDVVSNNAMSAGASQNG

In the case of AUUAUACGUGA (ssRNA) [IR-rpoA-U], the Kd in data set [1] (label: 5' IRDye 800CW) was 147 nM; in data set [2] (label: 5' IRDye 800CW) it was 119 nM; in data set [3] (label: 5' IRDye 800CW), 234 nM; in data set [4] (label: 5' IRDye 800CW) it was 160 nM; in data set [5] (label: 5' IRDye 800CW), 99.2 nM.

Consider AUUAGACGUGA (ssRNA) [Cy5-rpoA-G], for which the Kd in data set [1] (label: 5' Cy5) is 105 nM; in data set [2] (label: 5' Cy5), 95.6 nM; in data set [3] (label: 5' Cy5), 118 nM; in data set [4] (label: 5' Cy5), 166 nM; in data set [5] (label: 5' Cy5), 68.6 nM.

As to AUUACACGUGA (ssRNA) [Cy5-rpoA], the Kd in data set [1] (label: 5' Cy5) came to 145 nM; in data set [2] (label: 5' Cy5), 69.1 nM; in data set [3] (label: 5' Cy5) it was 119 nM; in data set [4] (label: 5' Cy5), 178 nM; in data set [5] (label: 5' Cy5) it was 94.7 nM.

Consider AUUAAACGUGA (ssRNA) [IR-rpoA-A], for which the dissociation constant Kd in data set [1] (label: 5' IRDye 800CW) was determined as 90.9 nM; in data set [2] (label: 5' IRDye 800CW) it was 218 nM; in data set [3] (label: 5' IRDye 800CW) it was 313 nM; in data set [4] (label: 5' IRDye 800CW), 254 nM; in data set [5] (label: 5' IRDye 800CW), 118 nM.

The Kd is the concentration at which binding is half-saturated.
